Biological target: nsp12 (RdRp catalytic subunit);nsp7;nsp8 (SARS-CoV-2;SARS-CoV-2;SARS-CoV-2, UniProt P0DTD1;P0DTD1;P0DTD1 4393-5324;3860-3942;3943-4140, ||)
Assay: fluorescence polarization; higher affinity than T20P14-R
Details: protein: recombinant;recombinant;recombinant; tags: His6-Smt3 removed by Ulp1;His6-Smt3 removed by Ulp1;His6-Smt3 removed by Ulp1; copies: 1;1;2; label: 5'-FAM (FP); hairpin, UUCG loop, 5' overhang 5 nt

GGGAAUGGGAUUUUAAUAGCUUCGGCUAUUAAAAUCCCA (structured_RNA) [T20P14-A]: binds.

Reference: PMC12519199, “Molecular basis of SARS-CoV-2 proofreading enzyme–mediated resistance to remdesivir”
